Biological target: PD-1 Ligand (PD-L1) (UniProt Q9NZQ7)
Sequence (Q9NZQ7 19-290): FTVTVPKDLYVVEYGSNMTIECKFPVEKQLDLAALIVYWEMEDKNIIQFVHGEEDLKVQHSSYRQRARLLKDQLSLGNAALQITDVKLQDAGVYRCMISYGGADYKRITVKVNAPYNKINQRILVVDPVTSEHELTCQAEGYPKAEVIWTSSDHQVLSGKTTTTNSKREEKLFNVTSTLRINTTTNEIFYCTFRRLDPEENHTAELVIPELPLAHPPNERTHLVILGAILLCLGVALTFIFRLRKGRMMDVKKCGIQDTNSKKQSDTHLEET

For “WW domain containing E3 ubiquitin protein ligase 1 (WWP1)”, the “PD-L1 K63-linked poly-ubiquitination (gel images)” value was “WWP1 triggers PD-L1 K63-linked poly-ubiquitination” and the “PD-L1 ubiquitination (gel images)” value was “WWP1 triggers PD-L1 ubiquitination in a catalytic dependent manner”.
